According to the domain aggregation screens of Martell et al. (2025):

Test: soluble fraction after stress (log2 fold change); higher = more stays soluble; pooled small domains, quantitative proteomics
Details: stress: 50 degC
Summary of the method: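 After stress at 50°C, the amount of each protein still soluble was measured. This was done on pooled custom libraries of small protein domains, using high-throughput quantitative proteomics. The figure given is a base-two log fold change and stands for aggregation propensity, with higher values meaning more protein stays in solution.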

Sequence	soluble fraction (log2)
HMQSNDAGELEAVVKGIIDANPKVVADYLAGNQKVVSFFVGQAMKATKGKANPKMVSEILGKLL	0.00348
HMNPTSLTFRSNVKDGKVYVDGIFKGSSDLDFDLPKGRHSIRIEKDGYVPFAKTINLIKALVIDFNMEKA	-1.83
HMNGVFIMHTPDGKVLRTEEGEEAVITLFNWSGQLLWSKTSLGQLPLPEGTQGVLQVQYKSGDQHTIKT	-0.267
HMRSSALDEIPGIGKQRKKNLLVHFTSVAKIKEASLDEIAAVPGMNRKAALVVVEFFQNQERE	-1.79
HMENRILLSEDSLKHLAQDIPIDIIEKLSVLKDQIYHRYDDFNSIVQGLLGGENYLKYKDNILSFVEQ	0.0624
HMGDVKLNAIYNFLKEFSALNGFPPSVREIGAKFGIKSTSTVHYYLEKLKQSGVIQQEENKKRAVVIN	-0.369
HMTKTEFLNLLEQRLFVLNDNERADLLSEYKQHIEMKIQSGLSEEEAIADFGDPEELIKELLEAY	-0.33
HMGDPYAILGLLPGASMEDVRHAWRRQAAENHPDRMLQRGAPPEFVEIAREKTAAINAAYARIREELSI	-0.303
HMKNMSLGERIKEQRKSSGLSQEKVAEFVGVSRQAVTKWETGQSAPSTENLFKLAEIFGTTVDILLA	0.000199
HMPEITPAMIKALLSSLSEELAFASVTKVYAVLHNLFKAALLDDTIDRNPMDKVPRPRKSKDAAL	-0.38
HMIPSLTITVNEHSRQITRGTSLYTLRDALYPDADVLVVNGHPADSDRHLEEGDAVVLIRRGA	-0.275
HMKNIINFIVKEDDNNKRVDMILANHDKSLSRTRVKNLILDSKLKINERIVQDPSIKTKLNDKIELEIVEP	0.611
HMQGPDPYAVLGIDRHADERAIKRAYRKLISEHHPDRLGDLPEDMRKRAESRASEINAAYDRIKEARGF	0.0487
HMSTTALLEKMVRYIRTLPVISQVVLSLHYYRGMELREIASELDITESRASQLHTTAVLGIRDLLSSY	-3.33
HMSTESAHLGERMLNQALRAMHIEPDQITEAHWQKLIRDYGLKKKSEILTDIGLGKRQNVMVAHQLLAMG	-0.106
HMRQSQEVSGGERYRRLTAYLDTHPFITRKEYSGITGLLKNKALNDLNLLVNKGYLEAMGRGSHKVYVRPM	-0.424
HMSGLVPAIGTKGEEGYIRESDIPGSNVKNPEEALAYMEWLKTQPSELLIPLYDEQGNVIGQFAVS	0.07
HMTGQHFDLEDTDGNLVYEIDSTVPLKTFYIYDAMHTEIFRMTKELLHALPTYRFYLYGEPYGVLKKQ	-0.174
HMDAPKPDIGMSTDQIRSSLGQPGSQTRLETGGGRIYELWIYLYPDGKELQIYFDNAKVVKMEALS	-0.613
HMRVDLATEVHSVLRRMMSRPPTLQEIRADLDGEEPGRVHEALDALRAAFRGGRGPKNPYESLKRSLRRG	0.0134
HMGEWHQMLRSWGETELKNGRQNILDEAVPAFERAMIETALAHTSGRKKDAALLLGWGRNTLTRKLQEHSI	-0.0702
HMVKETNYSFFLKQIDAGTVEQVQIEDTEIKFKVSTADGKEQVYSTVRVEDPDLVDRLYSKGNIDFTGN	-0.0595
HMGTRHPLPYAYARANTVLLEDDGDRLVLWAPENVSLTALGEVLRRFDVDALERESSSTLANRIAVAYAG	-0.751
HMEWTDIPTHKVPNVVGKSVEEAKKKLSKFTIEYSGTGEKVVAQSPDAGEKLEEGGTVRLLL	0.203
HMAWAVRAGEGVLIRAGQPGFSATTRGTALSNGAIGEGVRVRNLGSGKEIQAWVVDKGEVETR	0.0168

Sequence	soluble fraction (log2)
HMKQLRVLGIVKAGSILKNSDGSIEFVIEDSGKSLLVKYKGVIPDIFKDGVEAVVEGDLRGSVFNADKLF	-0.75
HMDAMLSEQLREKRGELLIEVDAIAGNALRWATLSAEQQDAWAVYRQALLDVPQQAGFPNDVVWPINPN	-0.352
HMQDPVWVDWLGENDWFQKDPKRRGLANGYSEILRAEQPELVGRPFLDEVTRRVQADFPELFG	-0.335
HMETKPTELMLEVHELRIGMFVHLDLGWMDHPFPLNRFKISTNSQIEQIKGLRLKQVKVMTALSDPTALS	-2.21
HMLPDLLNGRVIPSPEKVIRARLNRGVWELLVQWVGRAPSDATWENLLEFKSAYPSVQLEDALF	-1.45
HMSLSKEEFETISKQVLELAGAGPIPVKELLQKMERTSKEKAWKVIEFLQAEDKIVPDATGRIQL	-0.068
HMTKDEFLTTLRTLIQDMPPEDRRDVMNYYTEYFEDAGPEREQEVLRQLGSPEQVAREVLGG	-0.0225
HMRMQRYYLTDMSEKGREALPGVLDEMGYAGRYTMSDNSIAINSNMIVLSKAIKRAEDIAHNE	-0.086
HMTTQTTKYVNTTAGLNVRTGPSTSYAKIVTLSYGQSVNVLSTSNGWSKINYNGSTGYVSSQYLQSTKPS	-0.619
HMQPVLSDAEVNDLKNIAGGERGYNQLMDWAGNNLTAQDAKSYDDVLATGNKAAISFAIKALMGQYEDAN	0.047
HMADEGFRQTVLAVLARWESKIHHGQYNALKAKVMNGNWSSFVKQVVKFQGKFIHPDAAKELLGLFG	-0.0749
HMARVSGIDLPKNKRGYIGLTYIYGIGRSTALHILNSAGVDPEKKVHEWNDDETTAIRNIINAEIKVEGAL	-0.645
HMSLAATLSPREIDTVRLIAVGSSNKEIARQLGIAETTVKIHVQHILRKLNLTSRVQVAVFANAEGII	-0.801
HMKPGWEDIFRMNQIQLEDAVRTVNRDDTLAPTKKAYLIQNLLASRWIVGNQLQAQKDKTTE	-0.0813
HMSYDAINGYEPSDLRGSLTLEQTASMLNLPLTDVYARLGLPANYPSGATLKDGAADMGMGLSDFKHQLF	-0.0605
HMLSVRNRMSDVLKSLDDGEFHRFESLFNLEEGRLGVVVTFLAMLELAKEMLVEIVQNESLGPIYLKSR	-0.0774
HMKPKDILLPNFTNLTLDEAKAKAEEVKLNLNVSEEKYDVQIEEGKIISQDPKYQPNYTVKEGSTVNVVVS	0.161
HMVPISGADFEKLSDYILQKAGAGSIQVKELLAGLKGMHEKNLWKAIDYLLAEEKIRIDKGGNISVK	-0.00539
HMLQLDATDRALIVATQGGLPLVPRPYQVVGEQLGISGEEVVARLRALLDAGVIRRIGAVPN	-0.283
HMEGAEDMNRALALAFLRDNSRSTVAQLAEHLGSSKRSAERLVAQLKDEGVLERQGSPRAGLWIVHI	-0.0818
HMSLSPAATRSRGYPSVLLTMKAPERLVSAAGPDRRAYLVGTDPLVIELPGVKGLYKVDPDQIVFE	0.0566
HMKHFFIIAGGKIEDAFAIEVLKGFAEKTVIAADSGMEFLRRNEIVPQVIIGDFDSVSKETLEWFQKK	-0.703
HMVAGHLQEKNGYFYIVLNYTNHEGKRKSKWITTGLTVKGNKKRAQDLLQEARKTFVPDIPT	-1.19
HMKELTPEQLQHNWNNLRQFIDVNFSGDRLGGLNKMYDYFEERMMFAPASGKQHYHNAFAGGYVEHVMHV	0.335
HMKNIMRQWIELEPDQGKIRSKLYSLDRVVEETTNEVGMIKLLLEIDEKELNNLVSHNDIRLV	-0.21
